US20220177587A1, “METHODS AND USES OF VARIANT CD80 FUSION PROTEINS AND RELATED CONSTRUCTS” (Alpine Immune Sciences, Inc., priority 2018, published 2022)

What was measured:
[1] = biological target: CD28 (human) (UniProt P10747); experiment: flow cytometry, Jurkat cells (CD28)
[2] = biological target: human CTLA-4 (human) (UniProt P16410); experiment: flow cytometry, CHO cells expressing CTLA4
[3] = biological target: PD-L1 (human) (UniProt Q9NZQ7); experiment: flow cytometry, CHO cells expressing PD-L1
Chain of PD-L1 (human) (Q9NZQ7 19-290): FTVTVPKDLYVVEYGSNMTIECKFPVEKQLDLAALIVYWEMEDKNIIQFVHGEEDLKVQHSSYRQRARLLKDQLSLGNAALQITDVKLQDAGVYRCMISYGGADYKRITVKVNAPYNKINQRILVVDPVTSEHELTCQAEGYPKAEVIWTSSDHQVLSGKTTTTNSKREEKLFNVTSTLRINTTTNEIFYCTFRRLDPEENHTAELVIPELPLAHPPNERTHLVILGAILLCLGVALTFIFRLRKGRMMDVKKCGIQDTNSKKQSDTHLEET

[4] = biological target: PD-L1 (human) (UniProt Q9NZQ7)
[5] = biological target: CD28 (human) (UniProt P10747)

Chain of human CTLA-4 (human) (P16410 36-223): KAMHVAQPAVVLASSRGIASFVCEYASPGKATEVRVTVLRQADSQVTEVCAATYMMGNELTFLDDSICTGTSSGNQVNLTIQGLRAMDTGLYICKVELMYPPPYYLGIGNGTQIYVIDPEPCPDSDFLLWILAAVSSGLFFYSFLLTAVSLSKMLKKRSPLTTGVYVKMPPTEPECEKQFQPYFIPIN

Substance | MFI at 33.3 nM [1] [MFI] | MFI at 33.3 nM [2] [MFI] | MFI at 33.3 nM [3] [MFI] | Jurkat/IL2 reporter RLU at 50 nM, K562/OKT3/PD-L1 aAPC [4] [RLU] | Jurkat/IL2 reporter RLU at 50 nM, K562/OKT3/PD-L1 aAPC [5] [RLU]
CD80 V22D/E24D/E35D/M47V/V68M IgV-Fc (Fc fusion) | 191 | 16900 | – | – | –
CD80 E35D/D46E/M47I/T62A/V68M/L85M/Y87C IgV-Fc (Fc fusion) | – | 17000 | – | – | –
CD80 S21P/E35D/K37E/D46E/M47I/V68M IgV-Fc (Fc fusion) | 540 | 20600 | – | – | –
CD80 S21P/E35D/K37E/D46E/M47I/V68M/R94L IgV-Fc (Fc fusion) | 284 | 20100 | – | – | –
CD80 Q33L/E35D/M47V/T62S/V68M/L85M IgV-Fc (Fc fusion) | 15 | 86 | – | – | –
CD80 R29C/E35D/M47L/V68M/A71G/L85M IgV-Fc (Fc fusion) | 16 | 91 | – | – | –
CD80 E35D/M47V/V68M/L85M/Y87D IgV-Fc (Fc fusion) | – | 13900 | 1720 | – | –
CD80 E35D/D46E/M47V/A71D/D90G IgV-Fc (inert) (Fc fusion) | – | – | – | 1040 | 1040
CD80 E35D/T41S/M43I/M47L/A71G IgV-Fc (inert) (Fc fusion) | – | – | – | 1540 | 1540
CD80 T28Y/Q33H/E35D/D46V/M47I/A71G IgV-Fc (inert) (Fc fusion) | – | – | – | 580 | 580
CD80 E35D/D46E/M47V/N63D/L85Q IgV-Fc (inert) (Fc fusion) | – | – | – | 1380 | 1380
CD80 E35D/A71G IgV-Fc (inert) (Fc fusion) | – | – | – | 1190 | 1190
CD80 E35D/M47I/L85Q/D90G IgV-Fc (inert) (Fc fusion) | – | – | – | 1440 | 1440
CD80 H18Y/A26E/E35D/M47L/L85Q/D90G IgV-Fc (inert) (Fc fusion) | – | – | – | 1510 | 1510
CD80 V22A/E35D/M47I/Y87N IgV-Fc (inert) (Fc fusion) | – | – | – | 1390 | 1390
CD80 H18Y/E35D/N48K IgV-Fc (inert) (Fc fusion) | – | – | – | 1230 | 1230
CD80 H18Y/E35D/M47L/V68M/A71G/L85M IgV-Fc (Fc fusion) | – | 19500 | 18700 | – | –
CD80 E35D/M47I/T62S/L85Q IgV-Fc (inert) (Fc fusion) | – | – | – | 1570 | 1570
CD80 E35D/M47L/A71G/L85M/F92Y IgV-Fc (inert) (Fc fusion) | – | – | – | 1320 | 1320
CD80 V22D/E35D/M47L/L70M/L97Q IgV-Fc (inert) (Fc fusion) | – | – | – | 1540 | 1540
CD80 E35D/D46E/M47V/V68M/L85Q IgV-Fc (Fc fusion) | – | 15500 | 1720 | – | –
CD80 Q27H/E35D/D46V/M47L/A71G IgV-Fc (inert) (Fc fusion) | – | – | – | 978 | 978
CD80 E35D/K37E/M47V/N48D/L85Q/D90N IgV-Fc (inert) (Fc fusion) | – | – | – | 851 | 851
CD80 E35D/M38T/M43V/M47V/N48R/L85Q IgV-Fc (inert) (Fc fusion) | – | – | – | 680 | 680
CD80 E35D/T41S/M43V/M47I/L70M/A71G IgV-Fc (inert) (Fc fusion) | – | – | – | 1670 | 1670
